Measured values taken from US20220119789A1.

Target: Trx-VL(NP)-GUS(IV-5)KW (Escherichia coli)
Assay: cell-based or functional assay

PentaHis antibody (QIAGEN) was tested, and the average S/B ratio in 11 minutes after the beginning of reaction (GUS activity) was 13 and the average S/B ratio in 20 minutes after the beginning of reaction (GUS activity) was 42.3.
